How the values were obtained:
[1] = molecular target: cynomolgus BTN3A as expressed on cynomolgus PBMCs (cynomolgus monkey (Macaca fascicularis)); test: flow cytometry on cynomolgus PBMCs
[2] = molecular target: human BTN3A as expressed on human cells (PBMC, Daudi, tumour cell lines, HUVEC, HEK293T WT) (human); test: cell-based or functional assay
[3] = molecular target: human BTN3A as expressed on human cells (PBMC, Daudi, tumour cell lines, HUVEC, HEK293T WT) (human); test: flow cytometry on human PBMCs
[4] = molecular target: human BTN3A as expressed on human cells (PBMC, Daudi, tumour cell lines, HUVEC, HEK293T WT) (human); test: flow cytometry on Daudi lymphoma cells
[5] = molecular target: recombinant human BTN3A1-His (Sino Biological Cat. No. 15973-H08H) (human) (UniProt O00481); test: SPR Biacore multi-cycle kinetics; antibody captured on Protein A, BTN3A1-His analyte, 1:1 fit
Chain of recombinant human BTN3A1-His (Sino Biological Cat. No. 15973-H08H) (human) (O00481 30-254 limits assumed): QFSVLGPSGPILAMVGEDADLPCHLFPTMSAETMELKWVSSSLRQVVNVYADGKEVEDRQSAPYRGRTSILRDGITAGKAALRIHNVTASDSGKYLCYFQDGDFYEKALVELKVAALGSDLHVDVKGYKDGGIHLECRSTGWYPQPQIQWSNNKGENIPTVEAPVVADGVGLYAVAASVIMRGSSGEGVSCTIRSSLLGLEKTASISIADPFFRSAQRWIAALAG

EC50 [1]: 4.06 µg/mL
Functional assay (AML resistant) (γδT cell-based, EC50, µg/mL) [2]: 0.18 µg/mL
Functional assay (AML sensitive) (γδT cell-based, EC50, µg/mL) [2]: 0.05 µg/mL
Functional assay (Daudi) (γδT cell-based, EC50, µg/mL) [2]: 0.02 µg/mL
EC50 [3]: 3.02 µg/mL
EC50 [4]: 1.19 µg/mL
Kd [5]: 0.234 nM
Substance: Chimeric 20.1 (VH0/Vκ0) IgG4 (S241P, L248E) (antibody)

Source: patent US20260242483A1
